Source: the supplement of paper PMC12338614
± gives the uncertainty stated by the source.

B1: library; numbered along this chain (parent)
chain: MEVVDPQQLGMFTEGELMSVGMDTFIHRIDSTEVIYQPRRKRAKLIGKYLMGDLLGEGSYGKVKEVLDSETLCRRAVKILKKKKLRRIPNGEANVKKEIQLLRRLRHKNVIQLVDVLYNEEKQKMYMVMEYCVCGMQEMLDSVPEKRFPVCQAHGYFCQLIDGLEYLHSQGIVHKDIKPGNLLLTTGGTLKISDLGVAEALHPFAADDTCRTSQGSPAFQPPEIANGLDTFSGFKVDIWSAGVTLYNITTGLYPFEGDNIYKLFENIGKGSYAIPGDCGPPLSDLLKGMLEYEPAKRFSIRQIRQHSWFRKKHPPAEAPVPIPPSPDTKDRWRSMTVVPYLEDLHGADEDEDLFDIEDDIIYTQDFTVPGQVPEEEASHNGQRRGLPKAVCMNGTEAAQLSTKSRAEGRAPNPARKACSASSKIRRLSACKQQ

Variants of: B1
Assay: STK11 functional score (HeLa growth suppression), rescaled enrichment; synonymous median = 1, nonsense median = 0 (normalised score)
Settings: with HeLa; variant type: missense
Summary of the method: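 In HeLa, Bxb1 integrated POPCode codon-randomised libraries of codon-optimised STK11 at an AAVS1 landing pad; three regions were each transfected three times. Integrants, marked as BFP-negative and mCherry-positive, were FACS-sorted 4–5 days after electroporation and expanded for about two weeks before tiled gDNA amplicons were sequenced on NextSeq (~2 million reads per tile). Each functional score is a post/pre-selection log ratio corrected to wild type, rescaled to the synonymous and nonsense medians, and merged across codons and replicate transfections, with error estimated by bootstrapping.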

STK11 functional score, by site and new letter:
K235: H 1.29 ± 0.19 | Q 1.58 ± 0.35 | G 1.28 ± 0.35 | L 1.24 ± 0.18 | I 1.06 ± 0.65 | T 0.534 ± 0.21 | N 0.877 ± 0.28 | S 1.67 ± 0.14 | V 0.794 ± 0.12 | W 1.51 ± 0.13 | P 1.65 ± 0.36 | A 1.65 ± 0.24 | C 1.4 ± 0.27 | Y 1.19 ± 0.36
D237: H 1.53 ± 0.7 | N 1.36 ± 0.7 | E 0.97 ± 0.53
I238: T 1.31 ± 0.54 | R -0.17 ± 0.18 | F 0.0789 ± 0.1 | C 1.39 ± 0.33 | S 0.58 ± 0.16 | M 0.843 ± 0.17 | V 1.21 ± 0.16 | N 1.22 ± 0.86
Y246: S 0.254 ± 0.12 | C 0.451 ± 0.12 | E 0.0519 ± 0.077 | A 1.06 ± 0.1 | R 0.128 ± 0.28 | P -0.0491 ± 0.1 | T 0.982 ± 0.41 | V 0.944 ± 0.15 | F 0.678 ± 0.097 | M 1.29 ± 0.17 | W 1.15 ± 0.092 | D -0.149 ± 0.14 | G 0.403 ± 0.093 | Q 1.11 ± 0.17 | L 0.818 ± 0.17 | I 1.13 ± 0.095 | H -0.136 ± 0.1
N247: A 1.37 ± 0.11 | I 1.16 ± 0.15 | T 0.951 ± 0.094 | M 0.7 ± 0.58 | W 0.698 ± 0.082 | P -0.0537 ± 0.096 | Q 1.17 ± 0.23 | S 1.3 ± 0.2 | K 0.794 ± 0.19 | C 1.15 ± 0.4 | F 0.863 ± 0.091 | R 0.936 ± 0.16 | V 0.824 ± 0.1 | G 0.808 ± 0.097 | E 1.33 ± 0.12 | D 0.827 ± 0.46 | L 1.17 ± 0.15 | Y 1.32 ± 0.28 | H 1.26 ± 0.26
Y253: D 0.768 ± 0.37 | L 1.27 ± 0.12 | C 0.457 ± 0.26 | S 0.394 ± 0.12 | F 0.587 ± 0.17 | V 1.56 ± 0.22 | G 0.758 ± 0.17 | W 0.66 ± 0.1 | E 1 ± 0.41
G257: R 0.694 ± 0.29 | E 1.32 ± 0.47 | S 1.39 ± 0.13 | I 1.66 ± 0.44 | Y 1.57 ± 0.13 | A 1.25 ± 0.6 | V 1.23 ± 0.17 | L 0.765 ± 0.18
T249: S 1.24 ± 0.27 | G 0.293 ± 0.1 | E -0.289 ± 0.13 | H 1.64 ± 0.2 | W 0.0979 ± 0.1 | A 0.412 ± 0.66 | M 1.47 ± 0.2 | D -0.107 ± 0.097 | I 0.664 ± 0.24 | R 1.28 ± 0.31 | V 1.56 ± 0.1 | K -0.0774 ± 0.081 | P -0.0108 ± 0.27 | L 1.08 ± 0.3 | N 0.652 ± 0.27
P254: F 0.445 ± 0.29 | A -0.109 ± 0.13 | C 0.821 ± 0.47 | Y 0.0833 ± 0.12 | L 0.528 ± 0.12 | W 0.882 ± 0.1 | V 0.86 ± 0.31 | R 0.199 ± 0.14 | H 1.41 ± 0.15 | S 0.653 ± 0.17 | G 0.298 ± 0.11 | T 0.929 ± 0.1
V236: L 0.273 ± 0.21 | A 1.56 ± 0.4 | S 1.4 ± 0.37 | C 1.44 ± 0.47 | I 1.24 ± 0.96 | W 1.04 ± 0.19 | F 1.21 ± 0.17
G242: F 0.0262 ± 0.098 | C -0.0194 ± 0.091 | S 0.0147 ± 0.098 | K 0.078 ± 0.73 | E 0.274 ± 0.12 | T -0.128 ± 0.097 | V -0.059 ± 0.094 | H 0.0155 ± 0.32 | I -0.186 ± 0.099 | Y -0.0296 ± 0.066 | A 0.823 ± 0.13 | P 0.0217 ± 0.14 | R -0.0649 ± 0.095 | D 0.0263 ± 0.13 | L -0.0195 ± 0.092 | N -0.133 ± 0.22 | M -0.0974 ± 0.093
T244: A 0.738 ± 0.12 | H 0.0105 ± 0.12 | R 0.00573 ± 0.1 | S 0.613 ± 0.1 | K 0.388 ± 0.12 | L 1.02 ± 0.094 | I 0.627 ± 0.11 | P -0.17 ± 0.1 | C 1.32 ± 0.29 | N 0.0991 ± 0.1 | G 0.014 ± 0.099 | Q -0.178 ± 0.32 | F 0.698 ± 0.082 | V 1.15 ± 0.45 | D -0.0204 ± 0.1 | W 0.257 ± 0.092 | M 1.38 ± 0.098 | Y 0.127 ± 0.082 | E -0.168 ± 0.099
L245: E -0.0467 ± 0.26 | W -0.0585 ± 0.093 | R -0.0758 ± 0.098 | I 0.581 ± 0.1 | M 0.526 ± 0.22 | D -0.177 ± 0.17 | S -0.117 ± 0.094 | G -0.177 ± 0.094 | F 0.00828 ± 0.095 | K 0.475 ± 0.15 | V 0.345 ± 0.093 | Q 0.383 ± 0.19 | P -0.14 ± 0.1 | T -0.038 ± 0.1 | C 0.21 ± 0.093 | Y -0.0275 ± 0.097 | A 0.101 ± 0.099 | H -0.0776 ± 0.099
E256: G 1.17 ± 0.28 | I 1.04 ± 0.77 | F 0.982 ± 0.22 | C 0.541 ± 0.33 | A 0.686 ± 0.64 | W 1.65 ± 0.13 | Y 1.4 ± 0.16 | R 1.48 ± 0.19 | S 1.36 ± 0.4 | V 0.873 ± 0.33 | D 1.63 ± 0.4 | L 1.52 ± 0.31 | Q 1.47 ± 0.56
A241: S 0.863 ± 0.15 | T -0.298 ± 0.45 | C 1.21 ± 0.1 | G 0.802 ± 0.13 | D 0.383 ± 0.2 | P 0.702 ± 0.45
G251: R 0.411 ± 0.19 | P 0.0226 ± 0.16 | V -0.0264 ± 0.098 | D 0.751 ± 0.47 | C -0.00733 ± 0.1 | A 0.598 ± 0.42 | F 0.127 ± 0.13 | E 0.412 ± 0.098 | T 1.21 ± 0.25 | W -0.00281 ± 0.1 | L -0.144 ± 0.1 | Y 0.258 ± 0.24 | I 0.422 ± 0.25 | S 1.01 ± 0.2
S240: N 1.11 ± 0.44 | G 1.05 ± 0.16 | E 1.52 ± 0.24 | M 0.927 ± 0.66 | L 0.708 ± 0.14 | A 0.891 ± 0.13 | R 0.823 ± 0.1 | I 0.369 ± 0.095 | W -0.126 ± 0.094 | P -0.0488 ± 0.11 | D 0.841 ± 0.36 | H 1.08 ± 0.12 | T 1.07 ± 0.16 | C 1.38 ± 0.098 | Q 0.866 ± 0.15 | V 0.33 ± 0.1
V243: F 0.591 ± 0.095 | S 0.561 ± 0.11 | M 0.378 ± 0.14 | A 0.996 ± 0.097 | C 1 ± 0.099 | W 0.598 ± 0.099 | T 1.29 ± 0.26 | N 0.56 ± 0.19 | G 0.469 ± 0.16 | H -0.00535 ± 0.12 | Q 1.19 ± 0.52 | P -0.157 ± 0.11 | L 0.714 ± 0.13 | E 0.204 ± 0.47 | R 0.16 ± 0.099 | D -0.0994 ± 0.17 | I 1.42 ± 0.14
D258: G 1.47 ± 0.15 | F 0.78 ± 0.28 | C 1.16 ± 0.32 | M 0.663 ± 0.18 | W 1.5 ± 0.51 | L 0.539 ± 0.12 | V 1.39 ± 0.37 | R 1.29 ± 0.39 | S 1.42 ± 0.44 | Y 1.49 ± 0.2 | A 1.33 ± 0.76 | E 0.739 ± 0.3 | H 1.62 ± 0.55
F234: Y 0.805 ± 0.64 | W 1.44 ± 0.21 | R 1.5 ± 0.19 | S 1.1 ± 0.2 | V 1.2 ± 0.36 | L 0.75 ± 0.11
I248: T 1.15 ± 0.2 | W 0.853 ± 0.099 | Y 0.287 ± 0.15 | S 0.859 ± 0.097 | C 1 ± 0.24 | L 1.05 ± 0.18 | A 1.15 ± 0.26 | M 1.24 ± 0.3 | Q 1.25 ± 0.49 | F 0.497 ± 0.092 | R -0.248 ± 0.13 | G 0.0645 ± 0.096 | H -0.139 ± 0.09 | D 0.0228 ± 0.096 | P -0.0931 ± 0.13 | E 0.873 ± 0.49 | V 0.854 ± 0.17
N259: L 1.26 ± 0.31 | F 1.25 ± 0.24 | D 1.12 ± 0.63 | C 1.12 ± 0.42 | E 1.47 ± 0.34 | H 1.66 ± 0.14 | M 1.35 ± 0.12 | R 1.13 ± 0.46 | A -0.00474 ± 0.089 | G 0.492 ± 0.49
F255: V 1.09 ± 0.13 | A 1.31 ± 0.29 | W 0.941 ± 0.1 | N 0.322 ± 0.14 | R 0.632 ± 0.2 | H 0.97 ± 0.25 | L 0.5 ± 0.21 | I 1.36 ± 0.38 | T 0.94 ± 0.13 | C 0.921 ± 0.12 | G 0.519 ± 0.14 | P 0.517 ± 0.11 | E 0.827 ± 0.37 | S 1.14 ± 0.19 | D 0.348 ± 0.1 | Q 0.98 ± 0.44 | Y 1.25 ± 0.79 | M 0.792 ± 0.1
L252: F 1.07 ± 0.39 | Y 0.274 ± 0.59 | V 1.3 ± 0.094 | I 1.54 ± 0.12 | M 0.771 ± 0.35 | S 1.5 ± 0.22 | W 1.42 ± 0.17
W239: C 0.0722 ± 0.1 | E -0.254 ± 0.099 | H 0.199 ± 0.11 | M 0.267 ± 0.092 | T -0.0973 ± 0.1 | L 0.325 ± 0.1 | Y 0.934 ± 0.097 | P -0.0966 ± 0.095 | R 0.273 ± 0.15 | I -0.18 ± 0.095 | A 0.388 ± 0.093 | S 0.00373 ± 0.1 | K 0.155 ± 0.096 | D -0.00743 ± 0.45 | G -0.0583 ± 0.093 | V -0.13 ± 0.092
T250: A 1.01 ± 0.11 | L 1.45 ± 0.1 | H 1.65 ± 0.24 | F 1.14 ± 0.2 | S 1.37 ± 0.27 | C 1.22 ± 0.24 | Y 1.31 ± 0.65 | R 0.727 ± 0.25 | V 1.24 ± 0.14 | W 1.48 ± 0.098 | E 0.89 ± 0.1 | I 1.35 ± 0.2 | G 0.834 ± 0.095 | P -0.224 ± 0.1 | K 0.0557 ± 0.22
